Assay results: article PMC11722443

Biological target: Paxillin (PXN) N-domain, residues 1-311 (human) (UniProt P49023)
Test: NMR titration

Focal adhesion targeting (FAT) domain of focal adhesion kinase (FAK) (domain or fragment)
effective KD of the LD2 motif: 7 mM
